Source: PMC5564421
Like-named read-outs stand apart in the source and are kept apart here.

Experiments:
[1] = target: Cytc from equine heart (equine) (UniProt P00004); assay: SEC
[2] = target: Cytc from equine heart (equine) (UniProt P00004); assay: SEC; remark: listed apart in the source
[3] = target: WT* iso-1-Cytc (K72A variant of yeast iso-1-cytochrome c, with C102S) (yeast); assay: SEC
[4] = target: WT* iso-1-Cytc (K72A variant of yeast iso-1-cytochrome c, with C102S) (yeast); assay: SEC; remark: listed apart in the source
[5] = target: WT* iso-1-Cytc (K72A variant of yeast iso-1-cytochrome c, with C102S) (yeast); assay: SEC; remark: listed apart in the source
[6] = target: WT* iso-1-Cytc (K72A variant of yeast iso-1-cytochrome c, with C102S) (yeast); assay: SEC; remark: listed apart in the source
[7] = target: WT* iso-1-Cytc (K72A variant of yeast iso-1-cytochrome c, with C102S) (yeast); assay: crystal structure
[8] = target: WT* iso-1-Cytc (K72A variant of yeast iso-1-cytochrome c, with C102S) (yeast); assay: SEC; remark: listed apart in the source

Chain of Cytc from equine heart, P00004 1-105 (natural protein; other documents disagree on this pair) (P00004 whole entry): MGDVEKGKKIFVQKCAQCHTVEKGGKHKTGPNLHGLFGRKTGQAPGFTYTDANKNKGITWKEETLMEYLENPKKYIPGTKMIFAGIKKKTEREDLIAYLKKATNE

Substance	koff [1] [s⁻¹]	lifetime of the dimer [1] [days]	koff [2] [s⁻¹]	koff [3] [s⁻¹]	koff [4] [s⁻¹]	koff [5] [s⁻¹]	koff [6] [s⁻¹]	stoichiometry N [7]	koff [8] [s⁻¹]
Cytc from equine heart, P00004 1-105 (natural protein; other documents disagree on this pair)	1.5e-05	7.4	1.6e-06	–	–	–	–	–	–
WT* iso-1-Cytc (K72A variant of yeast iso-1-cytochrome c, with C102S) (natural protein)	–	–	–	6.1e-05	6.5e-06	1.6e-05	0.0034	2	0.00055
